# Reference: US20220041711A1
# Target: cyno LAIR-1-Fc (cynomolgus monkey)
# Experiment: ELISA blocking: plate coated with 5 µg/mL human collagen type 1, antibody titrated, 1 µg/mL biotinylated cyno LAIR-1-Fc, streptavidin-HRP, OD650
# Sequence of cyno LAIR-1-Fc (cynomolgus monkey) (chain, as listed by the source limits assumed, form in doubt): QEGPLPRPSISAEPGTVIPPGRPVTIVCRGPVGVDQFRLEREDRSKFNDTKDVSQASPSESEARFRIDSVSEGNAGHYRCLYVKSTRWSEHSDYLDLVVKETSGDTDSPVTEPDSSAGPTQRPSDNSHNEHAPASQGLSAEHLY
row,Binder,IC50 (read off the curve) [nM]
1,"humanized anti-LAIR-1 antibody Hz47H1.v4 (antibody, human IgG1, kappa, N297G, V domains shown) VH: EVQLVESGGGLVQPGGSLRLSCAASGFTFNINAMNWVRQAPGKGLEWVARIRTKNYNYATFYADSVKDRFTISRDDSKNSLYLQMNSLKTEDTAVYYCVRDRAGFFAYWGQGTTVTVSS VL: DIQMTQSPSSLSASVGDRVTITCLASQTIGTWLGWYQQKPGKAPKLLIYAATSLAEGVPSRFSGSGSGTDFTLTISSLQPEDFATYYCQQLYSTPLTFGGGTKVEIKR",3
2,"humanized anti-LAIR-1 antibody Hz62G10.v1 (antibody, human IgG1, kappa, N297G, V domains shown) VH: EVQLVESGGGLVKPGGSLRLSCAASGFTFNINAMNWVRQAPGKGLEWVARIRTKNNNFATYYADSVKDRFTISRDDSKNTLYLQMNSLKTEDTAVYYCVRGPYFDYWGQGTLVTVSS VL: DIQMTQSPSSLSASVGDRVTITCLASQTIGTWLAWYQQKPGKAPKLLIYAATSLADGVPSRFSGSGSGTDFTLTISSLQPEDFATYYCQQLYSTPYTFGGGTKVEIKR",3
3,"anti-LAIR-1 antibody ch47H1 (antibody, V domains shown) VH: EVQLVETGGGLVQPKGSLKLSCAASGFTFNINAMNWVRQAPGKGLEWVARIRTKNNNYATFYADSVKDRFTISRDDSQSMLYLQMNNLKTDDTAMYYCVRDRAGFFAYWGQGTPVTVSA VL: DIQMTQSPASQSASLGESVTITCLASQTIGTWLGWYRQKPGKSPQLLIYAATSLADGVPSRFSGSGSGTKFSFKISSLQAEDFVIYYCQQLYSTPLTFGSGTKLEIK",3
4,"anti-LAIR-1 antibody ch62G10 (antibody, V domains shown) VH: EVQLVETGGGLVQPKGSLKLSCATSGFTFNINAMNWVRQAPGKGLEWVARIRTKNNNFATYYADSVKDRFTISRDDSQSMLYLQMNNLKTEDTAMYYCVRGPYFDYWGQGTTLTVSS VL: DIQMTQSPASQSASLGESVTITCLASQTIGTWLAWYQQKPGKSPQLLIYAATSLADGVPSRFSGSGSGTKFSFKISNLQAEDFVTYYCQQLYSTPYTFGGGTKLEIK",3
5,"anti-LAIR-1 antibody ch57D12 (antibody, V domains shown) VH: QVQLQQSGAELARPGASVNLSCRASGYSFTSFGISWVKQRTGQGLEWIGEIYPRSDNTFYNEKFKGKATLTADKSSSTAYMELRSLTSEDSAVYFCARHFGSSSFDYWGQGTTLTVSS VL: ENVLTQSPPIMAASLGQKVTMTCSASSSVSSIYFHWYQQKSGTSPKPLIHRASNLASGVPARFSGSGSGTSYSLTISSVEAEDDATYYCQQWSGYPLTFGGGTKLEIK",6
